The target in test [1] is T1, non-glycosylated 15-mer MUC16 peptide (human).
T1 construct: Same peptide as the GlcNAc2-15-mer without the glycan; also called unglycosylated 15-mer
T1 peptide: CGTQLQNFTLDRSSV
The test is described as follows: ELISA 12/24/13 (sups from time of freezing), dilution 400, column 15.

The next test deals with T2, MUC16^c114 (human, capable of N-glycosylation at Asn1, Asn24 and Asn30 ; chain 1 pos 1, 24, 30: Asn capable of N-glycosylation on the transfected cells, written N).
T2 construct: The forward primer adds Met-Val before Asn1; also called MUC16^c114-GFP; SKOV3 MUC16^c114; not shown: hrGFP of the phrGFP II-C vector fused at the cytoplasmic carboxy-terminus, with its short cloning linker
T2 chain: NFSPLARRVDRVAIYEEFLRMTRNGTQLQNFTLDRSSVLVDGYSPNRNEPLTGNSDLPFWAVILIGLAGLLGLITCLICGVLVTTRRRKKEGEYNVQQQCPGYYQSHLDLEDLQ
The test is described as follows: FACS, SKOV3 transfectant, goat anti-mouse IgG-PE.

For a further test, the target named is T3, MUC16^c114-N1 (human, chain 1 pos 24 and pos 30: N-glycosylated Asn (cell-made glycans), written N).
T3 construct: MUC16^c114 with Asn1 (Asn1777) changed to Ala, on SKOV3 cells; also called N1 mut c114; SKOV3 MUC16^c114-N1; not shown: hrGFP of the phrGFP II-C vector, fused at the cytoplasmic carboxy-terminus
T3 chain: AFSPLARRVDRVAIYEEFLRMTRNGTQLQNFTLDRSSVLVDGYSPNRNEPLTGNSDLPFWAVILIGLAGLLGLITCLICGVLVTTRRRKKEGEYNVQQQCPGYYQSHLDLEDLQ
The test can be described thus: FACS, SKOV3 transfectant, goat anti-mouse IgG-PE.

Test [2] concerns the target T4, MUC16 unrelated peptide 18mer+GlcNAc2 (also: GlcNAc2 (chitobiose), site not given here).
T4 construct: Negative control glycopeptide; also called unrelated chitobiose-linked peptide
T4 peptide: GAVPRSATINVSRIATGP
The test is described as follows: sandwich ELISA.

Test [3] concerns the target T5, MUC16 unrelated peptide 18mer.
T5 construct: Negative control peptide without glycan
T5 peptide: GAVPRSATINVSRIATGP
The test is described as follows: sandwich ELISA.

The target in test [4] is T6, MUC16 nonglycosylated peptide 2 (human).
T6 construct: Peptide used to elicit the 4H11 antibody; also called nonglycosylated MUC16 peptide 2
T6 peptide: CTLDRSSVLVDGYSPNRNE
The test is described as follows: sandwich ELISA.

A further test deals with T7, MUC16^c114-N2 (human, chain 1 pos 1 and pos 30: N-glycosylated Asn (cell-made glycans), written N).
T7 construct: MUC16^c114 with Asn24 (Asn1800) changed to Ala, on SKOV3 cells; also called N24 mut c114; SKOV3-N24 mutc114; not shown: hrGFP of the phrGFP II-C vector, fused at the cytoplasmic carboxy-terminus
T7 chain: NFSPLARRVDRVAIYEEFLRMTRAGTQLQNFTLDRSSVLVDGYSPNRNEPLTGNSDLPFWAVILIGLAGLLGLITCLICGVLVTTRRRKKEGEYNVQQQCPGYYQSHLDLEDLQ
The test is described as follows: FACS, SKOV3-N24 mutc114.

The target in test [5] is T8, biotinylated chitobiose-conjugated 18-mer glycopeptide (human, also: biotinylated, site not given here).
T8 construct: Cys plus T22-V38 of MUC16^c114; The range is derived from T22-V38 and the statement that c114 is 1777-1890; the N-terminal Cys is added; also called (GlcNAc2)2-18-mer, biotinylated; 18-mer(chitobiose)2[C-T22-V38]
T8 peptide: Ac-CTRN(GlcNAc2)GTQLQN(GlcNAc2)FTLDRSSV-NH2
The test is described as follows: binding affinity table of Example 3; target not named there, taken as in Table 9 (Octet BLI, biotinylated chitobiose 18-mer). In short, it runs like this:
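Binding was measured by biolayer interferometry on a ForteBio Octet QK, with 5 μg/mL biotinylated chitobiose-conjugated 18-mer glycopeptide loaded onto streptavidin biosensors. Excess antigen was washed off, and mouse antibodies were run at 10 μg/mL for association and dissociation steps. Kd, kon and koff came from a 1:1 binding site model with partial fit.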

In a further test the target is T9, MUC16^c114-N3 (human, chain 1 pos 1 and pos 24: N-glycosylated Asn (cell-made glycans), written N).
T9 construct: MUC16^c114 with Asn30 (Asn1806) changed to Ala, on SKOV3 cells; also called N30 mut c114; SKOV3-N30 mutc114; not shown: hrGFP of the phrGFP II-C vector, fused at the cytoplasmic carboxy-terminus
T9 chain: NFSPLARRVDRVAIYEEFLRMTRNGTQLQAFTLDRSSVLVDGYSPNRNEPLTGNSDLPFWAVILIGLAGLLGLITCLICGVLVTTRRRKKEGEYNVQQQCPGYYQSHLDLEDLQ
The test can be described thus: FACS, SKOV3-N30 mutc114.

Ends that are not written are not given here. * marks the point of attachment. GlcNAc2 = N-linked chitobiose, CC(=O)N[C@@H]1[C@@H](O)[C@H](O[C@@H]2O[C@H](CO)[C@@H](O)[C@H](O)[C@H]2NC(C)=O)[C@@H](CO)O[C@H]1*

B1: 18C6.D12 (antibody, V domains shown)
VH: QVTLKESGPGILQPSQTLSLTCSFSGFSLSTVGMGVGWSRQPSGKGLEWLAHIWWDDEDKYYNPALKSRLTISKDTSKNQVFLKIANVDTADTATYYCTRIGTAQATDALDYWGQGTSVTVSS
VL: DIVMTQAAPSVPVTPGESVSISCRSSKSLLHSNGNTYLYWFLQRPGQSPQRLIYYMSNLASGVPDRFSGRGSGTDFTLRISRVEAEDVGVYYCMQSLEYPLTFGGGTKLEIK
notes: Mouse monoclonal from a hybridoma; also called MUC16 Glycosylation Antibody 18C6
Consider B1, for which the ELISA signal in test [1] turned out to be 0.44. Also, the results for the “Mean % PE” value with MUC16^c114 and with MUC16^c114-N1 were 73.1% and 83%, respectively. The binding result in [2], in [3] and in test [4] was “no binding” throughout. For the same molecule, the “geometric mean phycoerythrin (PE) fluorescence” value (“geometric mean phycoerythrin” below) with MUC16^c114-N2 is 1830; in the test with MUC16^c114-N3, 1700. Also, the Kd in test [5] was 11.1 nM. The molecule also registered a koff in [5] of 0.000678 s⁻¹.

B2: 19C11.H6 (antibody, V domains shown)
VH: QVNLKESGPGKLQPSQTLSLTCSFSGFSLSTLGMGVGWIRQSSGKGLEWLAHIWWDDDKYYNPALKSRLTISRATSKNQVFLKIVNVGTADTATYYCARIGTAQATDALDYWGQGTSVTVSS
VL: DIVMTQAAPSIPVTPGESVSISCRSSKSLLHSNGNTYLYWFLQRPGQSPQRLIYYMSNLASGVPDRFSGRGSGTDFTLKISRVEAGDVGVYYCMQGLEHPLTFGGGTKLEIK
notes: Mouse monoclonal from a hybridoma; Used as 89Zr-DFO-labelled antibody in the internalization assay; also called MUC16 Glycosylation Antibody 19C11
On to B2, for which the ELISA signal in test [1] amounted to 0.3. For the same molecule, the “Mean % PE” value in the test with MUC16^c114 came to 69.3%; with MUC16^c114-N1, 81.7%. Also, the binding result in test [2], in [3] and in test [4] was “no binding” in each case. Further, the figures for the “geometric mean phycoerythrin” value in the test with MUC16^c114-N2 and in the test with MUC16^c114-N3 were 486 and 536, respectively. Also, binding in test [5] was characterised by a dissociation constant (Kd) of 63.7 nM. The koff in test [5] is 0.00242 s⁻¹. Also, in test [5], the kon stood at 38000 M⁻¹ s⁻¹.

B3: 7B12.B3 (antibody, V domains shown)
VH: QVTLKESGPGILQPSQTLSLTCSFSGFSLSTVGMGVGWSRQPSGKGLEWLAHIWWDDEDKYYNPALKSRLTISKDTSKNQVFLKIANVDTADSATYYCTRIGTAQATDALDYWGQGTSVTVSS
VL: DIVMTQAAPSVSVTPGESVSISCRSSKSLRKSNGNTYLYWFLQRPGQSPQRLIYYMSNLASGVPDRFSGRGSGTDFTLRISRVEAEDVGVYYCMQSLEYPLTFGGGTKLKIK
notes: Mouse monoclonal from a hybridoma; also called MUC16 Glycosylation Antibody 7B12
Take B3: the ELISA signal in test [1] turned out to be 0.44. Also, the binding result in [2], in test [3] and in test [4] was “no binding” in each case. For the same molecule, the “geometric mean phycoerythrin” value with MUC16^c114-N2 was determined as 471. Besides, the Kd in test [5] amounted to 13.8 nM. Also, the koff in [5] was determined as 0.00104 s⁻¹.
